Article PMC5505151, “A proteomic analysis of LRRK2 binding partners reveals interactions with multiple signaling components of the WNT/PCP pathway” (Molecular Neurodegeneration, 2017)

Biological target: LRRK2 (wild type, transiently overexpressed; tagged construct not told for the experiment) (UniProt Q5S007 1-2527)
Assay: cell-based or functional assay

Chain of LRRK2 (wild type, transiently overexpressed; tagged construct not told for the experiment) (Q5S007 whole entry): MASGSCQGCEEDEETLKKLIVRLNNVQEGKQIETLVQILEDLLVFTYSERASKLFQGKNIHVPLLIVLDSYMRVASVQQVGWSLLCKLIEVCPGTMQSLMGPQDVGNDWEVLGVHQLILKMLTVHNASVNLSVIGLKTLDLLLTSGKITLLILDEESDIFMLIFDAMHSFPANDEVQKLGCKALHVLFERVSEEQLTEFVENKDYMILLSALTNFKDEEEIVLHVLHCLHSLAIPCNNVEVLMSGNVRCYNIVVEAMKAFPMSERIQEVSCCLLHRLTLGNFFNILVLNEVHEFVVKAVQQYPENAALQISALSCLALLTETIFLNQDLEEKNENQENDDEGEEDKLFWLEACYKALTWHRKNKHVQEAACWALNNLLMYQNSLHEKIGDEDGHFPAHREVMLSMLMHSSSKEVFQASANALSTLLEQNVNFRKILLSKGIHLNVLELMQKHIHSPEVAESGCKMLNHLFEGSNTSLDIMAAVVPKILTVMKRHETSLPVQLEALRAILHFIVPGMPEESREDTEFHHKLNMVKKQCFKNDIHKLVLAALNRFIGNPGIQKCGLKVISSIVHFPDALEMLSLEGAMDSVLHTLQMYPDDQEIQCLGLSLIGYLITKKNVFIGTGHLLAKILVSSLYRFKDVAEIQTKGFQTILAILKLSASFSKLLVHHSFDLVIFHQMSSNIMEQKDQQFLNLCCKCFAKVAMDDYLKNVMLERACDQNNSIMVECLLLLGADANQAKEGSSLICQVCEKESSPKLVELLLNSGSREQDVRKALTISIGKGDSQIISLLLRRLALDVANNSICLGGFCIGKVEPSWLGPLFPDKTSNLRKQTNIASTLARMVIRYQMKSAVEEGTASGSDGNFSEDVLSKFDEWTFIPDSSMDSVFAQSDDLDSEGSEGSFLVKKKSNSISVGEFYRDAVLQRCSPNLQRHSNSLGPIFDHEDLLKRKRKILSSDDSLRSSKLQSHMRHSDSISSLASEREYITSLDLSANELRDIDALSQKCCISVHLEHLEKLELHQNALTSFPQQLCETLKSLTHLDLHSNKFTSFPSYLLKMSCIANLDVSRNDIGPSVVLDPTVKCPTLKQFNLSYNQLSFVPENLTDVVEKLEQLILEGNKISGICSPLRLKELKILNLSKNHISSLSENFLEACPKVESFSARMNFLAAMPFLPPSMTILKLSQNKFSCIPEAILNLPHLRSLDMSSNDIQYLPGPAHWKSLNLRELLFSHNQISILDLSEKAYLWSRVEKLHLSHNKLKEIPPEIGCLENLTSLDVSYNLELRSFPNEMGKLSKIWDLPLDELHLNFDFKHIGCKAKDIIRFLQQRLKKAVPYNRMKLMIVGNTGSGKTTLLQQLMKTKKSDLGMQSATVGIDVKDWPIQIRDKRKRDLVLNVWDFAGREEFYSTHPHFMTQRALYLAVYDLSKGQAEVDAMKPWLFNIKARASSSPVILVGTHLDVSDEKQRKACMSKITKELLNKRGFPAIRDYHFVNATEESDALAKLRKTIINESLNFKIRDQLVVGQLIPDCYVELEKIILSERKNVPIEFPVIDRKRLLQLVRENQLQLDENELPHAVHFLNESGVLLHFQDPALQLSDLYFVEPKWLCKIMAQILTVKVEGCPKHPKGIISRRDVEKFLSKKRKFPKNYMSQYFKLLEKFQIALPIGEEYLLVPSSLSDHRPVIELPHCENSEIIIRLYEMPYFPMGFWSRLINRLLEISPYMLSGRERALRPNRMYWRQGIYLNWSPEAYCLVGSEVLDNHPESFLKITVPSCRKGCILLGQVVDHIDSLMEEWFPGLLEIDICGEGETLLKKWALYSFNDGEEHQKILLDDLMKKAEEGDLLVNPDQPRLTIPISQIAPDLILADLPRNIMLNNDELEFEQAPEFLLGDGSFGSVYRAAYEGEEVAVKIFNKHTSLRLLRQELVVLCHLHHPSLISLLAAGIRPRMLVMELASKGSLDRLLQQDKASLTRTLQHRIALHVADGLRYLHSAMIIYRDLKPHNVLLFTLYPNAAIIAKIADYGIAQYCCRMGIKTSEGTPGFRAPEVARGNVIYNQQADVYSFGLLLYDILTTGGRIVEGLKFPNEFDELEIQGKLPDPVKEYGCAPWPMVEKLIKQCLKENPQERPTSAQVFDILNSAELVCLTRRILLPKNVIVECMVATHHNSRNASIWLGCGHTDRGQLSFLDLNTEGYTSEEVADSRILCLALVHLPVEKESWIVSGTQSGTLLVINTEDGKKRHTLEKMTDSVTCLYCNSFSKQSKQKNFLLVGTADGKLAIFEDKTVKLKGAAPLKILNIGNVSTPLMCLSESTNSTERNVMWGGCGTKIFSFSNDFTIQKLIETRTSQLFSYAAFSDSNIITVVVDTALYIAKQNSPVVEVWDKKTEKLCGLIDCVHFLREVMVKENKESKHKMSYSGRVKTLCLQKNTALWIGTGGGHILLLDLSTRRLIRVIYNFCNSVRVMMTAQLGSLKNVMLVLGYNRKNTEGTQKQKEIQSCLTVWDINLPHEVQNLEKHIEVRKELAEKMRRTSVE

- TOPFlash (WNT/β-catenin reporter) in HEK293T cells expressing DVL2, LRRK2 and PRICKLE1, fold of control (DVL2 with LRRK2 without PRICKLE1: ~130 fold): ~80 fold
B1: Prickle1-ECFP (natural protein, UniProt Q3U5C7 1-832, looked up)
chain: MPLEMEPKMSKLVFGCQRSSTSDDDSGCALEEYAWVPPGLRPEQIQLYFACLPEEKVPYVNSPGEKHRIKQLLYQLPPHDNEVRYCQSLSEEEKKELQVFSAQRKKEALGRGTIKLLSRAVMHAVCEQCGLQMNGGEVAVFASRAGPGVCWHPSCFVCFTCNELLVDLIYFYQDGKIHCGRHHAELLKPRCSACDEIIFADECTEAEGRHWHMKHFCCLECETVLGGQRYIMKDGRPFCCGCFESLYAEYCETCGEHIGVDHAQMTYDGQHWHATEACFSCAQCKASLLGCPFLPKQGQIYCSKTCSLGEDIHASDSSDSAFQSARSRDSRRSVRMGRSSRSADQCRQSLLLSPALNYKFPGLSGNADDTLSRKLDDVSLASRQGAGFANEEFWKARVEQEASEDPEEWAEHEDYMTQLLLKFGDKNLFQQQSSEVDPRASEHWIPDNMVTNKPEVKPNHQGLASKKYQSDMYWAQSQDGLGDSAYGSHPGPASSRRLQELDLDHGAAGYTHDQSQWYEDSLECLSDLKPEQSIRDSMDSLALSNITGASVDGESKPRPSLYSLQNFEEIEAEDCEKMSNMGTLNSSMLHRSAESLQSLNSGLCPEKILPEEKPAHLPVLRRSKSQSRPQQVKFSDDVIDNGSYDIEIRQPPMSERTRRRAYHFEERGSRPHHHRHRRSRKSRSDNALNLVTERKYSAKDRLRLYTPDNYEKFIQNKSARELQAYMQNANLYSQYAHATSDYALQNPGMNRFLGLCGEDDDSWCSSSTSSSDSEEEGYFLGQPIPQPRPQRFTYYTDDLSSPASALPTPQFTQRTTKSKKKKGHKGKNCIIS
